Laboratory results: patent US20220033484A1 (FAPON BIOTECH, published 2022)

B1: Anti-cTnI-21C5 monoclonal antibody (recombinant) (antibody, mouse IgG2b, V domains shown)
VH: EVQLQQSGPELVKPGASVKMSCKASGYSFTLYVVHWVKQKPGQGLEWIGYIQPYLDGTRYNEKFKGKATLTVDKSSSTAFMELSSLTSEDSAVYYCARTGYGGYGLAWLAYWGQGTLVTVSA
VL: QAVVIQESALTTSPGETVTLTCRSSSGAATTSQYANWVQEKPDHLFTGLIGGSNNRAPGVPARFSGSLIGDKAALTITGAQTEDEAIYFCAIVYSNHWVFGGGTKLTVLG
notes: also called WT; Sample 1
B2: Mutation 1-19 (antibody, V domains shown)
VH: EVQLQQSGPELVKPGASVKMSCKASGYTFTIYVLHWVKQKPGQGLEWIGYINPYLDGTKYNEKFKGKATLTVDKSSSTAFMELSSLTSEDSAVYYCARSGYGNYGLAWLAYWGQGTLVTVSA
VL: QAVVIQESALTTSPGETVTLTCRSSTGAVTTSNYANWVQEKPDHLFTGLIGGSQNRAPGVPARFSGSLIGDKAALTITGAQTEDEAIYFCALVYSNQWVFGGGTKLTVLG
notes: Built as m8
B3: Mutation 1-17 (antibody, V domains shown)
VH: EVQLQQSGPELVKPGASVKMSCKASGYTFTLYVIHWVKQKPGQGLEWIGYINPYLDGTKYNEKFKGKATLTVDKSSSTAFMELSSLTSEDSAVYYCARSGYGGYGLAWLAYWGQGTLVTVSA
VL: QAVVIQESALTTSPGETVTLTCRSSTGAATTSNYANWVQEKPDHLFTGLIGGSQNRAPGVPARFSGSLIGDKAALTITGAQTEDEAIYFCALVYSNQWVFGGGTKLTVLG
notes: Built as m8
B4: Mutation 2 (antibody, V domains shown)
VH: EVQLQQSGPELVKPGASVKMSCKASGYSFTLYVVHWVKQKPGQGLEWIGYIQPYLDGTKYNEKFKGKATLTVDKSSSTAFMELSSLTSEDSAVYYCARSGYGGYGLAWLAYWGQGTLVTVSA
VL: QAVVIQESALTTSPGETVTLTCRSSTGAATTSQYANWVQEKPDHLFTGLIGGSNNRVPGVPARFSGSLIGDKAALTITGAQTEDEAIYFCAIVYSNHWVFGGGTKLTVLG
notes: Built as m3, with this row's residues
B5: Mutation 1 (antibody, V domains shown)
VH: EVQLQQSGPELVKPGASVKMSCKASGYTFTLYVVHWVKQKPGQGLEWIGYIQPYLDGTKYNEKFKGKATLTVDKSSSTAFMELSSLTSEDSAVYYCARSGYGGYGLAWLAYWGQGTLVTVSA
VL: QAVVIQESALTTSPGETVTLTCRSSTGAATTSQYANWVQEKPDHLFTGLIGGSNNRAPGVPARFSGSLIGDKAALTITGAQTEDEAIYFCALVYSNHWVFGGGTKLTVLG
notes: CDR mutant of WT
B6: Mutation 3 (antibody, V domains shown)
VH: EVQLQQSGPELVKPGASVKMSCKASGYTFTLYVVHWVKQKPGQGLEWIGYIQPYLDGTHYNEKFKGKATLTVDKSSSTAFMELSSLTSEDSAVYYCARSGYGGYGLAWLAYWGQGTLVTVSA
VL: QAVVIQESALTTSPGETVTLTCRSSSGAATTSQYANWVQEKPDHLFTGLIGGSNNRIPGVPARFSGSLIGDKAALTITGAQTEDEAIYFCAAVYSNHWVFGGGTKLTVLG
notes: as for B4

Assays:
[1] = target: T1, cTnI quality control product recombinant protein (human, UniProt P19429 2-210, limits assumed); test: AMC sensor, antibody immobilised, cTnI in solution
T1 construct: treated as the same molecule; also called cTnI antigen; cardiac troponin I
In short: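 Bio-layer interferometry: sensor equilibrated in PBST 60 s, antibody loaded 300 s, PBST baseline 180 s, antigen association 420 s, dissociation in PBST 1200 s. Regenerated with 10 mM glycine pH 1.69. KD (equilibrium dissociation constant), Kon (binding rate) and Kd (dissociation rate) reported.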

[2] = target: T1, cTnI quality control product …; test: sandwich ELISA, antibody 0.457 ng/ml on anti-mouse IgG, cTnI 0.15 ug/ml, HRP second mAb
Description: (§1) After mutation, the antibody activity is detected. 1 μg/ml of goat anti-mouse IgG is diluted with coating solution to coat a microwell plate, 100 μL per well, and overnight at 4 DEG C.; on the next day, it is washed twice with washing solution, and patted dry; blocking solution (20% BSA+80% PBS) is added, 120 μL per well, 37 DEG C., and 1 h, and patted dry; a diluted cTnI monoclonal antibody is added, 100 μL/well, 37 DEG C., and 60 min; liquid in the plate is shaken off, patted dry, and 20% of mouse negative blood is added for blocking, 120 μl per well, 37 DEG C., 1 h; liquid in the plate is shaken off, patted dry, a diluted cTnI antigen (0.15 μg/ml) is added, 100 μL per well, 37 DEG C., and 40 min; it is washed for 5 times with the washing solution, and patted dry; another strain of the cTnI monoclonal antibody (1:5K) labeled with HRP is added, 100 μL per well, 37 DEG C., and 30 min; color developing solution A (50 μL/well) is added, color developing solution B (50 μL/well) is added, 10 min; stop solution is added, 50 μL/well; and a OD value is read at 450 nm (refer to 630 nm) on a microplate reader.

[3] = target: T1, cTnI quality control product …; test: sandwich ELISA, antibody 1.372 ng/ml on anti-mouse IgG, cTnI 0.15 ug/ml, HRP second mAb
Description: as §1

[4] = target: T1, cTnI quality control product …; test: sandwich ELISA, antibody 4.115 ng/ml on anti-mouse IgG, cTnI 0.15 ug/ml, HRP second mAb
Description: as §1

[5] = target: T1, cTnI quality control product …; test: sandwich ELISA, antibody 12.346 ng/ml on anti-mouse IgG, cTnI 0.15 ug/ml, HRP second mAb
Description: as §1

[6] = target: T1, cTnI quality control product …; test: sandwich ELISA, antibody 37.037 ng/ml on anti-mouse IgG, cTnI 0.15 ug/ml, HRP second mAb
Description: as §1

[7] = target: T1, cTnI quality control product …; test: sandwich ELISA, antibody 0.000 ng/ml (blank of this series), cTnI 0.15 ug/ml, HRP second mAb
Description: as §1

T1 sequence (P19429 2-210 limits assumed): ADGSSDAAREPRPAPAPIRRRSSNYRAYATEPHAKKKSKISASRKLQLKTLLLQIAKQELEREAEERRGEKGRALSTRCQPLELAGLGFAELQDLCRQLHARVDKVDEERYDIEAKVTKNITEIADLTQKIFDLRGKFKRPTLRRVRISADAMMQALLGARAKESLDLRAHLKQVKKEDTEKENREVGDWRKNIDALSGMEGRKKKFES

Binder	Kd [1] [nM]	koff [1] [s⁻¹]	kon [1] [M⁻¹ s⁻¹]	OD450 (ref. 630 nm) [2] [OD]	OD450 (ref. 630 nm) [3] [OD]	OD450 (ref. 630 nm) [4] [OD]	OD450 (ref. 630 nm) [5] [OD]	OD450 (ref. 630 nm) [6] [OD]	OD450 (ref. 630 nm) [7] [OD]
B1	70.9	0.0034	48000	0.365	0.612	1.19	1.97	2.16	0.13
B2	4.81	0.000274	57000						
B3	7.37	0.000237	32100						
B4				0.211	0.421	1.51	1.94	2.1	0.117
B5	4.2	0.000214	51000	0.524	0.94	1.89	2.24	2.33	0.114
B6					0.15	0.347	0.824	1.58	
